Values of other authors in publication PMC3000440.

Columns and labels:
IGF-I (Homo sapiens) = IGF-I (Homo sapiens) (UniProt P05019)
Met (Homo sapiens) = Met (Homo sapiens) (UniProt P08581)
EGFR (Homo sapiens) = EGFR (Homo sapiens) (UniProt P00533)
IGF-IR (Homo sapiens) = IGF-IR (Homo sapiens) (UniProt P08069)
UniProt P08069, sequence (P08069 31-736, chain 1 of 2): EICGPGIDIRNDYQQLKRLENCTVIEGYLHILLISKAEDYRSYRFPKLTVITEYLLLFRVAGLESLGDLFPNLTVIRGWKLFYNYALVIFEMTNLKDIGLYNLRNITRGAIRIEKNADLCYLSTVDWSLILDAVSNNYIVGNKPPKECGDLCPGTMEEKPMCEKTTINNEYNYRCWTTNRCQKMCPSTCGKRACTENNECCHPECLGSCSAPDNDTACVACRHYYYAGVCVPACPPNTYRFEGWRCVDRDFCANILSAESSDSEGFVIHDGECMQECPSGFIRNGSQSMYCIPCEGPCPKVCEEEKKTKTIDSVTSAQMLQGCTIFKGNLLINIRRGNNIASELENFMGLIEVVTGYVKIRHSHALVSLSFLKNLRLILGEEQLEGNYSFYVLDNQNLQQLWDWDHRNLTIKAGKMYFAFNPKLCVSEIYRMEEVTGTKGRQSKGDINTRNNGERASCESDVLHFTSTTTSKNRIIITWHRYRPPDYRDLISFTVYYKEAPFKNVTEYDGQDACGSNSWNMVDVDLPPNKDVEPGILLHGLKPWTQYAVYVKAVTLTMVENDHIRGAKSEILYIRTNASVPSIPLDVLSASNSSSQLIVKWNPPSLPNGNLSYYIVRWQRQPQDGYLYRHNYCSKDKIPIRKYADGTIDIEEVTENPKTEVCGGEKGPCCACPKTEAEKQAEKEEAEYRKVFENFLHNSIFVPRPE
UniProt P08069, sequence (P08069 741-935, chain 2 of 2): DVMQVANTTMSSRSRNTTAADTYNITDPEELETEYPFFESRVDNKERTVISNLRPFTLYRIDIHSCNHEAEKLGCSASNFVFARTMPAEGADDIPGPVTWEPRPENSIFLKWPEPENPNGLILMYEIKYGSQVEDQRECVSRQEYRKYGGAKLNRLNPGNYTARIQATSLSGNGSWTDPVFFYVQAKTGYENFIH

UniProt P05019, sequence (P05019 49-118): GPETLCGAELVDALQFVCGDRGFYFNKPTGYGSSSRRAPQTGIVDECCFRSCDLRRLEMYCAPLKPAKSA
UniProt P08581, sequence (P08581 25-932): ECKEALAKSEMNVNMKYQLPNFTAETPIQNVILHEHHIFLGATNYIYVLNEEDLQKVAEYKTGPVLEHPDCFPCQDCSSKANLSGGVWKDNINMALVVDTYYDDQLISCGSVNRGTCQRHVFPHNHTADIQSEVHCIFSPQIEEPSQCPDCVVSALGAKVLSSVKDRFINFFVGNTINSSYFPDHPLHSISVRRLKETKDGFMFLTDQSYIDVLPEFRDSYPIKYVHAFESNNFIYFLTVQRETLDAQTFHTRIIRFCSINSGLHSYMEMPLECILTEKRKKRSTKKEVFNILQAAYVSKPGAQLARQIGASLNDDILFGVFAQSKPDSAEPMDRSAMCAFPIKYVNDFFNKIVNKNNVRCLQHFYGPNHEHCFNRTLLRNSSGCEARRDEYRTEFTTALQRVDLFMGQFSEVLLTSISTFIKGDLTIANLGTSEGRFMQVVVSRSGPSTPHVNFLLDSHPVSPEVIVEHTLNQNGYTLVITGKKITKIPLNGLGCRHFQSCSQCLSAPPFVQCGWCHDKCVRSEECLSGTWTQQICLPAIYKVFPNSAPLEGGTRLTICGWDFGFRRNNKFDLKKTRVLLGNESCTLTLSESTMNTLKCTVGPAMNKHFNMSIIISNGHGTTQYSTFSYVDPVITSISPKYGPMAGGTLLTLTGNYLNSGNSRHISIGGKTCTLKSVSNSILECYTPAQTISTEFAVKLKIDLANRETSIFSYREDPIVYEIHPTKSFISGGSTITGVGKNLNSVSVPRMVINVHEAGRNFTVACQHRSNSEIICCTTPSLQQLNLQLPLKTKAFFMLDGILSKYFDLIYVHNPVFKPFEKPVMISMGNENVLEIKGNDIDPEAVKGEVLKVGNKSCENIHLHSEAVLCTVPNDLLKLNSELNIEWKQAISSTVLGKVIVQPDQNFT

Q: Which Kd (IGF-I (Homo sapiens)) does the source give for decorin (from UniProt P07585) here?
A: 18 nM

Q: What about the Kd (Met (Homo sapiens)) of the same substance?
A: 1.5 nM

Q: What about the Kd (EGFR (Homo sapiens)) of the same substance?
A: 87 nM

Q: And the Kd (IGF-IR (Homo sapiens))?
A: 1.5 nM
